Source: US20210102001A1 (CHIMAGEN BIOSCIENCES, published 2021)
Substitutions are numbered along the chain they refer to. Read-outs that look alike come from different tables or passages of the source.

B1: Antibody #25, CD19×CD3 DICAD (bispecific antibody, name in Kabat numbering)
chain 1: DIQLTQSPASLAVSLGQRATISCKASQSVDYDGDSYLNWYQDIPGQPPKLLIYDASNLVSGIPPRFSGSGSGTDFTLNIHPVEKVDAATYHCQQSTEDPWTFGGGTKLEIKGGSGGSGGSEVQLVESGGGLVQPGGSLRLSCAASGYSFTGYTMNWVRDAPGKCLEWVALINPYKGVSTYNQKFKDRFTISVDKSKNTAYLQMNSLRAEDTAVYYCARSGYYGDSDWYFDVWGQGTLVTVSS
chain 2: DIQMTQSPSSLSASVGDRVTITCRASQDIRNYLNWYQKKPGKAPKLLIYYTSRLESGVPSRFSGSGSGTDYTLTISSLQPEDFATYYCQQGNTLPWTFGCGTKVEIKGGSGGSGGSQVQLQQSGAELVRPGSSVKISCKASGYAFSSYWMNWVKKRPGQGLEWIGQIWPGDGDTNYNGKFKGKATLTADESSSTAYMQLSSLASEDSAVYFCARRETTTVGRYYYAMDYWGQGTSVTVSS
notes: Same mutations as #9, with the 9-residue linker; also called 025; Sample25; not shown: hinge-CH2-CH3
B2: Antibody #43, CD19×CD3 DICAD (bispecific antibody)
chain 1: B1 chain 1 with D42Q
chain 2: B1 chain 2 with K155Q
notes: also called 043; Sample43; not shown: hinge-CH2-CH3
B3: Antibody #63, DICAD CD19×CD3 (1:1) bispecific (bispecific antibody)
chain 1: EIVLTQSPATLSVTPGERATLSCSASSSVSYMHWYQKKPGQAPRLLIYDTSKLASGIPARFSGSGSGTDFTLTISSLEPEDFAVYYCFQGSVYPFTFGCGTKLEIKRTVAAEVQLVESGGGLVQPGGSLRLSCAASGFTFNTYAMNWVRKAPGKGLEWVGRIRSKYNNYATYYADSVDKGRFTISRDDSKNSLYLQMNSLKTEDTAVYYCVRHGNFGNSYVSWFAYWGQGTLVTVSS
chain 2: EAVVTQEPSLTVSPGGTVTLTCRSSTGAVTTSNYANWVQDKPGQAPRGLIGGTNKRAPWTPARFSGSLLGGKAALTITGAQPEDEAGYYCALWYSNLWVFGGGTKLTVLRTVAAQVQLQESGPGLVKPSQTLSLTCTVSGGSISTSGMGVGWIRDHPGKCLEWIGHIWWDDDKRYNPALKSRVTISVDTSKNQFSLKLSSVTAADTAVYYCARMELWSYYFDYWGQGTTLTVSSASEPKSDKTHTCPPCPAPPVAGGPSVPLPPPKPKDTLMISRTPEVTCVVVDVSQEDPEVKFNWYVDGVGVHNAKTKPREEQFNSTYRVVSVLTVLHQDWLNGKEYKCKVSNKGLPSSIEKTISKAKGQPREPQVYTLPPCRDELTKNQVSLWCLVKGFYPSDIAVEWESNGQPENNYKTTPPVLDSDGSFFLYSKLTVDKSRWQQGNVFSCSVMHEALHNHYTQKSLSLSPGK
chain 3: DKTHTCPPCPAPPVAGGPSVFLFPPKPKDTLMISRTPEVTCVVVDVSQEDPEVKFNWYVDGVEVHNAKTKPREEQFNSTYRVVSVLTVLHQDWLNGKEYKCKVSNKGLPSSIEKTISKAKGQPREPQVCTLPPSRDELTKNQVSLSCAVKGFYPSDIAVEWESNGQPENNYKTTPPVLDSDGSFFLVSKLTVDKSRWQQGNVFSCSVMHEALHNRFTQKSLSLSPGK
notes: also called 063; #63-CD3×CD19 bispecific
B4: Antibody #55, CD3×CD19×CD8 tri-specific antibody (other)
chain 1: B3 chain 1
chain 2: B3 chain 2
heavy: QVQLVESGGGVVQPGRSLRLSCAASGPTFSDFGMNWVRKAPGKGLEWVALIYYDGSNKFYADSVKGRFTISRDNSKNTLYLQMNSLRAEDTAVYYCAKPHYDGYYHFFDSWGQGTLVTVSSASTKGPSVFPLAPGSSKSTSGTAALGCLVKDYFPEPVTVSWNSGALTSGVHTFPAVLQSSGLYSLSSVVTVPSSSLGTQTYICNVNHKPSNTKVDKKVEPKSCDKTHTCPPCPAPPVAGGPSVFLFPPKPKDTLMISRTPEVTCVVVDVSQEDPEVKFNWYVDGVEVHNAKTKPREEQFNSTYRVVSVLTVLHQDWLNGKEYKCKVSNKGLPSSIEKTISKAKGQPREPQVCTLPPSRDELTKNQVSLSCAVKGFYPSDIAVEWESNGQPENNYKTTPPVLDSDGSFFLVSKLTVDKSRWQQGNVFSCSVMHEALHNRFTQKSLSLSPGK
light: not shown
notes: Tri-specific antibody of four chains
B5: HD37, anti-CD19 parental antibody (#21) (antibody, V domains shown)
VH: QVQLQQSGAELVRPGSSVKISCKASGYAFSSYWMNWVKQRPGQGLEWIGQIWPGDGDTNYNGKFKGKATLTADESSSTAYMQLSSLASEDSAVYFCARRETTTVGRYYYAMDYWGQGTSVTVSS
VL: DIQLTQSPASLAVSLGQRATISCKASQSVDYDGDSYLNWYQQIPGQPPKLLIYDASNLVSGIPPRFSGSGSGTDFTLNIHPVEKVDAATYHCQQSTEDPWTFGGGTKLEIK
notes: also called 021
B6: Antibody #50, TRIAD CD19×CD3 (Fab arm anti-CD19) (bispecific antibody)
chain 1: DIQMTQSPSSLSASVGDRVTITCRASQDIRNYLNWYQKKPGKAPKLLIYYTSRLESGVPSRFSGSGSGTDYTLTISSLQPEDFATYYCQQGNTLPWTFGCGTKVEIK
chain 2: B5 VH with Q39K
chain 3: B5 VL with Q42D
chain 4: EVQLVESGGGLVQPGGSLRLSCAASGYSFTGYTMNWVRDAPGKCLEWVALINPYKGVSTYNQKFKDRFTISVDKSKNTAYLQMNSLRAEDTAVYYCARSGYYGDSDWYFDVWGQGTLVTVSS
chain 5: B5 VH
chain 6: B5 VL
B7: Antibody #54, TRIAD CD19×CD3 (Fab arm anti-CD19) (bispecific antibody)
chain 1: B5 VL with Q42K, G104C
chain 2: B6 chain 4 with D39K, C44G
chain 3: B6 chain 1 with K38D, C100Q
chain 4: B5 VH with Q39D, G44C
chain 5: B5 VH
chain 6: B5 VL
B8: Antibody #1, CD19×CD3 Di-Diabody from HD37 and UCHT1, no interface mutations (bispecific antibody)
chain 1: DIQLTQSPASLAVSLGQRATISCKASQSVDYDGDSYLNWYQQIPGQPPKLLIYDASNLVSGIPPRFSGSGSGTDFTLNIHPVEKVDAATYHCQQSTEDPWTFGGGTKLEIKRTVAAEVQLVESGGGLVQPGGSLRLSCAASGYSFTGYTMNWVRQAPGKGLEWVALINPYKGVSTYNQKFKDRFTISVDKSKNTAYLQMNSLRAEDTAVYYCARSGYYGDSDWYFDVWGQGTLVTVSS
chain 2: DIQMTQSPSSLSASVGDRVTITCRASQDIRNYLNWYQQKPGKAPKLLIYYTSRLESGVPSRFSGSGSGTDYTLTISSLQPEDFATYYCQQGNTLPWTFGQGTKVEIKRTVAAQVQLQQSGAELVRPGSSVKISCKASGYAFSSYWMNWVKQRPGQGLEWIGQIWPGDGDTNYNGKFKGKATLTADESSSTAYMQLSSLASEDSAVYFCARRETTTVGRYYYAMDYWGQGTSVTVSS
notes: Peptide 1: CD19VL-linker-CD3VH-hinge-CH2-CH3; also called 001; Sample01; not shown: hinge-CH2-CH3
B9: Antibody #9, CD19×CD3 DICAD (bispecific antibody, name in Kabat numbering)
chain 1: B8 chain 1 with Q42D, Q155D, G160C
chain 2: B8 chain 2 with Q38K, Q100C, Q151K
notes: also called 009; not shown: hinge-CH2-CH3

What was measured:
human CD3 = target: T1, human CD3 (human, UniProt P07766 23-126); assay: SPR (Biacore); CD3 captured on anti-His antibody chip, antibody injected at 5 concentrations
T1 construct: not shown: A CD3 delta or gamma partner chain is possible if the reagent was a heterodimer
Experimental: (§1) A series of sample antibodies were assayed for SPR (Surface Plasmon Resonance) signals upon human CD3 binding on the Biacore platform. Ka, Kd and KD were calculated from the experimental results and used to evaluate affinity of the antibodies for human CD3. CD3 molecules as ligands were immobilized to chips conjugated with anti-histine antibodies. Sample antibodies, at 5 different concentrations, were injected to the system to be analyzed.

human CD19 (His-tagged) [1] = target: T2, human CD19 (His-tagged) (human, UniProt P15391 20-291); assay: SPR (Biacore); CD19 captured on anti-His antibody chip, antibody injected at 5 concentrations
T2 construct: Captured on chips carrying anti-histidine antibodies
T2 sequence (looked up): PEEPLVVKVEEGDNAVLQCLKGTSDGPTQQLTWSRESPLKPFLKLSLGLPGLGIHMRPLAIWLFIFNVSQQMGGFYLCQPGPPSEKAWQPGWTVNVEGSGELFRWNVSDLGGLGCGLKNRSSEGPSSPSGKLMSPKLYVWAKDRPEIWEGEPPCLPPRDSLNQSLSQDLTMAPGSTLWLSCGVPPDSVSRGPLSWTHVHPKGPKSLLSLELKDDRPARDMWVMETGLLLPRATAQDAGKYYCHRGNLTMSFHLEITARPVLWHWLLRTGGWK
Experimental: as §1, with “CD19” for “CD3”, “Kₐ,” for “Ka,”, “CD19. CD19” for “CD3. CD3”, “analyzed. Anti-CD3 antibody UCHT1 and anti-CD19 antibody HD37 were also examined as #20 and #21, respectively. The results are shonw in FIG. 7 and Table 15.” for “analyzed.”

human CD3E [2] = target: T3, human CD3E (human, UniProt P07766 23-126, limits assumed); assay: SPR (BIAcore); human CD3E captured on anti-His antibody chip, antibody at 5 concentrations
T3 construct: Captured on chips carrying anti-histidine antibodies, 'using the same method' as the His-tagged CD19
Experimental: (§2) Binding affinity for human CD3E or human CD19 of the CD3×CD19 bispecific antibody was tested by BIAcore, and Kₐ, Kd and KD values of the antibody were calculated based on the results. His-tagged human CD19 was used as ligand and captured on chips conjugated with anti-histine antibodies. Candidate molecules in five different concentrations were analyzed for their affinity for CD19. Affinity for human CD3E was examined using the same method.

human CD19 (His-tagged) [3] = target: T2, human CD19 (His-tagged); assay: SPR (BIAcore); His-tagged human CD19 captured on anti-His antibody chip, antibody at 5 concentrations
Experimental: as §2

human CD19 (His-tagged) [4] = target: T2, human CD19 (His-tagged); assay: SPR (BIAcore); human CD19 captured on anti-His antibody chip, antibody at 5 concentrations
Experimental: (§3) Binding affinity for human CD3E or human CD19 of the CD3×CD19×CD8 tri-specific antibody was tested by BIAcore. Kₐ, Kd and KD were calculated from the experimental results and used to evaluate affinity of the antibodies for human CD3E and CD19. CD3E and CD19 molecules as ligands were immobilized to chips conjugated with anti-histine antibodies. Antibody molecules in five different concentrations were analyzed for their affinity for CD19. Affinity for human CD3E was examined using the same method.

human CD3E [5] = target: T3, human CD3E; assay: SPR (BIAcore); human CD3E captured on anti-His antibody chip, antibody at 5 concentrations; remark: listed apart in the source
Experimental: as §3

human CD19 (His-tagged) [6] = target: T2, human CD19 (His-tagged); assay: SPR (Biacore); CD19 captured on anti-His antibody chip, antibody injected at 5 concentrations; remark: listed apart in the source
Experimental: as §1, with “Affinity: Affinity kinetics studies based on human CD19-binding assays. A” for “A”, “CD19” for “CD3”, “Kₐ,” for “Ka,”, “CD19. CD19” for “CD3. CD3”

T1 sequence (P07766 23-126 limits assumed): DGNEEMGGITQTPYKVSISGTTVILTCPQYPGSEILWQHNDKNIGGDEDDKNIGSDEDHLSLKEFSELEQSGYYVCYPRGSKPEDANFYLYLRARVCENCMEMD
T3 sequence (P07766 23-126 limits assumed): as above

Binder | Kd (human CD3) [nM] | Kd (human CD19 (His-tagged) [1]) [nM] | Kd (human CD19 (His-tagged) [6]) [nM] | also measured
B1 | 34.9 | 1 |  | 
B2 | 269 | 0.537 |  | 
B3 |  |  |  | Kd (human CD3E [2]): 31.4 nM; koff (human CD3E [2]): 0.0153 s⁻¹; kon (human CD3E [2]): 488000 M⁻¹ s⁻¹; Kd (human CD19 (His-tagged) [3]): 1.83 nM; koff (human CD19 (His-tagged) [3]): 0.000669 s⁻¹; kon (human CD19 (His-tagged) [3]): 365000 M⁻¹ s⁻¹
B4 |  |  |  | Kd (human CD19 (His-tagged) [4]): 8.63 nM; Kd (human CD3E [5]): 31.3 nM
B5 |  | 0.537 | 3.81 | binding result (human CD3): no binding
B6 |  |  | 1.73 | 
B7 |  |  | 0.806 | 
B8 |  | 0.769 |  | 
B9 | 172 | 0.26 |  | 
